Assay results taken from patent US20250057918A1 (YALE UNIVERSITY, published 2025).

Assays:
[1] = molecular target: T1, human IL-18BP (amino acids 31-194) (human, UniProt O95998 31-194, biotinylated on the AviTag (BirA ligase) where immobilized or used for staining); test: SPR; KD BP / KD Ra normalized to WT IL-18
T1 construct: Secreted decoy receptor; made in insect cells (gp67 signal peptide); also called hIL-18BP
T1 sequence: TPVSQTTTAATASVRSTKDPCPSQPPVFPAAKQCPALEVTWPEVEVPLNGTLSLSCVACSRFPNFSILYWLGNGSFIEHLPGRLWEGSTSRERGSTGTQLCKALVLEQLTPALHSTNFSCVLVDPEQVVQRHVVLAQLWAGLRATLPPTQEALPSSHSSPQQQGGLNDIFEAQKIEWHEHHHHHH

[2] = molecular target: T1, human IL-18BP (amino acids 31-194); test: on-yeast isotherms; KD IL-18BP / KD IL-18Rα (20 µM used for NBD)
[3] = molecular target: T1, human IL-18BP (amino acids 31-194); test: on-yeast isotherms; BP/Rα KD ratio normalized to WT
Protocol: (§1) Individual colonies of IL-18 yeast were grown overnight at 30° C. in SDCAA liquid media and induced in SGCAA liquid media for 1 day at 20° C. IL-18 display levels on yeast were verified by flow cytometry using an anti-cMyc tag antibody (anti-myc-PE; Cell Signaling Technologies). Receptor staining with biotinylated IL-18Rα (with or without IL-18Rβ) or biotinylated IL-18BP was performed in PBS supplemented with 0.5% BSA and 2 mM EDTA (PBE) on ice. All analysis was performed on a Sony SA3800 flow cytometer.
(§2) To additionally characterize the receptor binding activities of the DR-IL-18 variants, the cytokines were expressed recombinantly and surface plasmon resonance for IL-18Rα and IL-18BP was performed (see FIG. 5B for representative traces).

[4] = molecular target: T2, IL-18 receptor (IL-18R) on HEK-Blue IL-18 reporter cells (UniProt Q13478 19-541; O95256 20-599, limits assumed); test: cell-based or functional assay
T2 sequence (looked up) 1: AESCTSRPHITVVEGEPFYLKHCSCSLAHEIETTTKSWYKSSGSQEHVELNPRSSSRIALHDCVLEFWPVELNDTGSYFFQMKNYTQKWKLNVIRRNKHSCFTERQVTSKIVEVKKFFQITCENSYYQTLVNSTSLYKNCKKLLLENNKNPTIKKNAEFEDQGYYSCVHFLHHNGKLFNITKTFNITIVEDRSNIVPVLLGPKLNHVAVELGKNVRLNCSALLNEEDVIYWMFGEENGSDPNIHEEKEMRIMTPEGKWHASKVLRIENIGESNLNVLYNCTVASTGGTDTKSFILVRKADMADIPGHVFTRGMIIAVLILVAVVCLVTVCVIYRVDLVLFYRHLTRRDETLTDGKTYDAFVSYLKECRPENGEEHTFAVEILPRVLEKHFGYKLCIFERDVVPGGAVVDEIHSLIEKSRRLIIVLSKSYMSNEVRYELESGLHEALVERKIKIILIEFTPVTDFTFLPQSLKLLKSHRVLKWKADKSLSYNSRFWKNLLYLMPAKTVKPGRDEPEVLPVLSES
T2 sequence (looked up) 2: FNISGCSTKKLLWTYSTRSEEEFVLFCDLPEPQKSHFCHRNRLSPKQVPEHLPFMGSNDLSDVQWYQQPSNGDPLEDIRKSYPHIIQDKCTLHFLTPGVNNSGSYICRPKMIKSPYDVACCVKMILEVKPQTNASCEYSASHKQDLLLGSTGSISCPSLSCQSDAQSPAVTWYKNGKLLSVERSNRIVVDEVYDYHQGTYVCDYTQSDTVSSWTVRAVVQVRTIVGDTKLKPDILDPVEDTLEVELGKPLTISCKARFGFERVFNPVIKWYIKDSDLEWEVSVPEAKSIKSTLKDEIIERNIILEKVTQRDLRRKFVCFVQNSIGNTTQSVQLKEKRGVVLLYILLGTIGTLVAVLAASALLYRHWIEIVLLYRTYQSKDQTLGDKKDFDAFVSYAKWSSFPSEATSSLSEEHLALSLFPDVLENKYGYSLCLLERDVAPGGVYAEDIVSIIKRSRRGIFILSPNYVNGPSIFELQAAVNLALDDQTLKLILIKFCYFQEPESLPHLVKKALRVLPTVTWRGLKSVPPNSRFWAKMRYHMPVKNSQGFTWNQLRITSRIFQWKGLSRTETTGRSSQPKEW

[5] = molecular target: T1, human IL-18BP (amino acids 31-194); test: SPR; KD IL-18BP / KD IL-18Rα; SPR; ratio of two KDs
Protocol: (§3) Experiments were conducted using a Biacore™ T100 (Protein analysis interaction system) and carried out at 25° C. Biotinylated IL-18Rα or TL-18BP were immobilized onto a Biacore™ biotin capture chip (Series S CAP sensor chip, GE Healthcare) to yield an Rmax of ˜50 RU (IL-18Rα) or ˜10 RU (IL-18BP). Measurements were made with serial dilutions of the IL-18 variants in HEPES buffered Saline-P+ buffer (10 mM HEPES pH 7.4, 150 mM NaCl, 0.005% surfactant P20). The surface was regenerated by three 60-see injections of regeneration buffer (3/4 (v/v) 8M guanidine hydrochloride with 1/4 (v/v) 1M sodium hydroxide). Experiments were performed in multiple channels simultaneously for increased observations. All data were analyzed with the Biacore™ T100 evaluation software version 2.0 with a 1:1 Langmuir binding model.
as §2

[6] = molecular target: T1, human IL-18BP (amino acids 31-194); test: on-yeast isotherms; KD IL-18BP / KD IL-18Rα (20 µM used for NBD); on-yeast isotherms; 20 µM put in for NBD
Protocol: as §1, §2

[7] = molecular target: T3, human IL-18Rα ectodomain (amino acids 19-329) (human, UniProt Q13478 19-329, biotinylated on the AviTag (BirA ligase)); test: on-yeast binding isotherm, flow cytometry
T3 construct: range 19-329; Secreted from insect cells (gp67 signal peptide); also called hIL-18Rα; hIL-18Ra
T3 sequence: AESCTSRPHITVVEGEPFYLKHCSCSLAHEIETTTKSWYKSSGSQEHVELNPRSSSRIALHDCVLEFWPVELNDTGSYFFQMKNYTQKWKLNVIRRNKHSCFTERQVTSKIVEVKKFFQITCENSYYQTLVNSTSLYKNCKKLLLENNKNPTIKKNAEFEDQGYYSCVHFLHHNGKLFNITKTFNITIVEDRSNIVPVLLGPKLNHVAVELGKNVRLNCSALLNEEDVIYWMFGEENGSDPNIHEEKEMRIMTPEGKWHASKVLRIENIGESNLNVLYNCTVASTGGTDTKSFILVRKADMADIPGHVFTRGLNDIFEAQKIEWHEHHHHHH
Protocol: as §1, §2

[8] = molecular target: T4, mouse IL-18Rα ectodomain (amino acids 19-329) (mouse, UniProt Q61098 19-329, biotinylated on the AviTag (BirA ligase)); test: flow cytometry, mIL-18Rα titrated on yeast-displayed murine IL-18 variant (binding isotherm, %Max)
T4 construct: range 19-329; Secreted from Expi293 cells (H7 signal peptide); also called mIL-18Rα; Ra
T4 sequence: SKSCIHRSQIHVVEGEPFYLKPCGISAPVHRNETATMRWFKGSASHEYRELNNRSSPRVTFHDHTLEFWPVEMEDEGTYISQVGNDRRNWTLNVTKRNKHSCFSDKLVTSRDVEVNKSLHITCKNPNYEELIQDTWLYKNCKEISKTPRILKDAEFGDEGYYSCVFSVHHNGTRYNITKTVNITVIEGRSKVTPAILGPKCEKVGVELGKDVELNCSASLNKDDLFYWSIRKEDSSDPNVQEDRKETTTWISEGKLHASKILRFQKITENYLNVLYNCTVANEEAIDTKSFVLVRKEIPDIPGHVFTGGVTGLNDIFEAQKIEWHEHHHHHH

[9] = molecular target: T5, mouse IL-18BP (amino acids 31-194) (mouse, UniProt Q9Z0M9 29-193, biotinylated on the AviTag (BirA ligase)); test: SPR; KD BP / KD Ra normalized to WT IL-18
T5 construct: Secreted decoy receptor; made in Expi293 cells (H7 signal peptide); the stated range is the same as for the human protein; also called mIL-18BP
T5 sequence: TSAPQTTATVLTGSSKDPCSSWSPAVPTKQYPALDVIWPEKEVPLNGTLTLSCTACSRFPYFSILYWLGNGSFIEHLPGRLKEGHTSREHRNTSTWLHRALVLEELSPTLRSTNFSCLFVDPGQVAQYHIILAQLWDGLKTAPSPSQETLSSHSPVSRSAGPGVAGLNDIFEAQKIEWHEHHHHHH

[10] = molecular target: T5, mouse IL-18BP (amino acids 31-194); test: SPR; KD IL-18BP / KD IL-18Rα
Protocol: (§4) By contrast, very little binding is observed with the same variants and mIL-18BP (right). (FIG. 11B) Representative surface plasmon resonance sensorgrams between immobilized biotinylated mIL-18BP and the murine DR-IL-18 variants.
as §3

[11] = molecular target: T5, mouse IL-18BP (amino acids 31-194); test: on-yeast isotherms; KD IL-18BP / KD IL-18Rα
[12] = molecular target: T5, mouse IL-18BP (amino acids 31-194); test: on-yeast isotherms; KD IL-18BP / KD IL-18Rα (10 µM used for NBD); on-yeast isotherms; 10 µM put in for NBD
[13] = molecular target: T5, mouse IL-18BP (amino acids 31-194); test: SPR; KD IL-18BP / KD IL-18Rα; SPR; ratio of two KDs
Protocol: as §4, §3

[14] = molecular target: T5, mouse IL-18BP (amino acids 31-194); test: SPR; KD BP / KD Ra normalized to WT IL-18; upper end tied to mA7 by Table 9

B1: 6-29 (ligand)
chain: YFGKLESKLSVIRNLNDQVLFIDQGNRPLFEDMTDSDCRDNAPRTIFIISKYSDSRARGLAVTISVKCEKISTLSCENKIISFKEMNPPDNIKDTKSDIIFFQRNVPGHGRKMQFESSSYEGYFLACEKERDLFKLILKKEDELGDRSIMFTVQNED
notes: recombinant with C-terminal hexahistidine tag in SPR and cell assays; also called h6-29; version 2.0 human DR-IL-18 variant
In the case of B1, the “IL-18 BP:Ra Dissociation Constant Ratio” value [1] is reported as over 7.59e+06, the “KD ratio: IL-18BP/IL-18Rα” value [2] is reported as 540 and the “Dissociation Constant Ratio normalized to WT IL-18” value [3] is reported as over 8000. For the same binder, the “EC50 (read off the curve); HEK-Blue IL-18 SEAP reporter, OD 655 nM” value [4] was about 0.9 nM.

B2: hCS4 (ligand)
chain: RFGKLESKLSVIRNLNDQVLFIDQGNRPLFEDMTDSDCRDNAPRTIFIISTYRDSQPRGKAVTISVKCEKISTLSCENKIISFKEMNPPDNIKDTKSDIIFFQRNVPGHKYKMQFESSSYEGYFLACEKERDLFKLILKKEDELGDRSIMFTVQNED
notes: recombinant with C-terminal hexahistidine tag in SPR and cell assays
For B2, the “KD ratio: IL-18BP/IL-18Rα” value [5] was 41.8, the “KD ratio: IL-18BP/IL-18Rα” value [6] was over 125 and the “IL-18 BP:Ra Dissociation Constant Ratio” value [1] was 32200.

B3: hCS2 (ligand)
chain: YFGKLESKLSVIRNLNDQVLFIDQGNRPLFEDMTDSDCRDNAPRTIFIISTYKDKQPRAKAVTISVKCEKISTLSCENKIISFKEMNPPDNIKDTKSDIIFFQRDVPGHKHKMQFESSSYEGYFLACEKERDLFKLILKKEDELGDRSIMFTIQNED
notes: recombinant with C-terminal hexahistidine tag in SPR
For B3, the “KD ratio: IL-18BP/IL-18Rα” value [2] was over 219 and the Kd [7] was 91.5 nM.

B4: wild-type mouse IL-18 (mature form) (ligand)
chain: NFGRLHCTTAVIRNINDQVLFVDKRQPVFEDMTDIDQSASEPQTRLIIYMYKDSEVRGLAVTLSVKDSKMSTLSCKNKIISFEEMDPPENIDDIQSDLIFFQKRVPGHNKMEFESSLYEGHFLACQKEDDAFKLILKKKDENGDKSVMFTLTNLHQS
notes: recombinant from E. coli with C-terminal hexahistidine tag in SPR; also called mIL-18 WT; WT mIL-18
B4 was tested, and the “EC50 (read off the curve)” value [8] was about 10 nM, the “IL-18 BP:Ra Dissociation Constant Ratio” value [9] was 1 and the “KD ratio: IL-18BP/IL-18Rα” value [10] was 0.00183. For the same binder, the “KD ratio: IL-18BP/IL-18Rα” value [11] was 0.188.

B5: mA7 (ligand)
chain: YFGRLHCTTAVIRNINDQVLFVDKRQPVFEDMTDIDQSASEPQTRLIIYAYGDNRVRGKAVTLSVKDSKMSTLSCKNKIISFEEMDPPENIDDIQSDLIFFQKRVPGHNKMEFESSLYEGHFLACQKEDDAFKLILKKKDENGDKSVMFTLTNLHQS
notes: as for B3
With B5 the “KD ratio: IL-18BP/IL-18Rα” value [12] was over 741, the “KD ratio: IL-18BP/IL-18Rα” value [13] was 63200 and the “EC50 (read off the curve)” value [8] was about 10 nM. The “IL-18 BP:Ra Dissociation Constant Ratio” value [14] was 3.5e+07.
